The target of this experiment is asialofetuin (Sigma Type-I) (Bos taurus (Bovine)) (UniProt P12763).

Consider “Triton extract of uninfected RK13 cells (pool or library)”, for which the […] (fluorescence assay, […] (mU/mg total protein) came out at 0.036.

Source of the values: US6136579.
